# Source: doi:10.1101/2020.03.25.007906 (bioRxiv, 2020)
# T1: purified recombinant drDnaB (Deinococcus radiodurans R1, UniProt Q9RWW6 1-448)
# T1 sequence (looked up): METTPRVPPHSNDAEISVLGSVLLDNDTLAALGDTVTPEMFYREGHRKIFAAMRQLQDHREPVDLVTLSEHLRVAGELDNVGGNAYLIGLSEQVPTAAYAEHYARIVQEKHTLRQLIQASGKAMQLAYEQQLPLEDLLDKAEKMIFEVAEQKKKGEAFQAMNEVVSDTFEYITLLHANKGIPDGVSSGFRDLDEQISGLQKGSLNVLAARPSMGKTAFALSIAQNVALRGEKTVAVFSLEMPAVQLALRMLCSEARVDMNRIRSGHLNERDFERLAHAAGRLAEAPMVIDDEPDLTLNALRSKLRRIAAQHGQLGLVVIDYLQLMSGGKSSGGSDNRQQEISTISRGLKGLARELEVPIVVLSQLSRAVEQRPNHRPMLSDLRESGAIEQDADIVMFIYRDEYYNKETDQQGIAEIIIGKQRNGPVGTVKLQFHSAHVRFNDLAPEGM
# T2: purified recombinant drDnaA (Deinococcus radiodurans R1, UniProt Q9RYE7 1-466)
# T2 sequence (looked up): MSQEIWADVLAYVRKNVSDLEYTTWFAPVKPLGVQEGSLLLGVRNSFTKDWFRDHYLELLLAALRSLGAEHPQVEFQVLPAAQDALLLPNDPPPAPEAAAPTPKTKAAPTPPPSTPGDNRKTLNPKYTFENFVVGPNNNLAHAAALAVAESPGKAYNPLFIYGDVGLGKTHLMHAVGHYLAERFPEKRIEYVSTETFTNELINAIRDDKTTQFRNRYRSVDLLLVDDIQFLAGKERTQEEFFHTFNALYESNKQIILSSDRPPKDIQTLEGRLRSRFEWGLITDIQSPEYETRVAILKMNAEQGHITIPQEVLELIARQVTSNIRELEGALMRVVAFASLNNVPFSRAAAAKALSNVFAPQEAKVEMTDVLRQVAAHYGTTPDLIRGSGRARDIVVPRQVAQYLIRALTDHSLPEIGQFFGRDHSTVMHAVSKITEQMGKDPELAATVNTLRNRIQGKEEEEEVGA
# Experiments:
# [1] = biological target: T1, purified recombinant drDnaB; experiment: SPR
# [2] = biological target: T2, purified recombinant drDnaA; experiment: SPR
binder,measurement,setting,value
"recombinant PprA (natural protein, Deinococcus radiodurans, UniProt O32504 1-300, looked up) MLPLAFLICSGHNKGSMARAKAKDQTDGIYAAFDTLMSTAGVDSQIAALAASEADAGTLDAALTQSLQEAQGRWGLGLHHLRHEARLTDDGDIEILTDGRPSARVSEGFGALAQAYAPMQALDERGLSQWAALGEGYRAPGDLPLAQLKVLIEHARDFETDWSAGRGETFQRVWRKGDTLFVEVARPASAEAALSDAAWDVIASIKDRAFQRELMRRSEKDGMLGALLGARHAGAKANLAQLPEAHFTVQAFVQTLSGAAARNAEEYRAALKTAAAALEEYQGVTTRQLSEVLRHGLRES",Kd,[1],971 nM
same,Kd,[2],541 nM
